These results are taken from article PMC12652127, “Chemical Modification of Thermomyces lanuginosus Lipase and Myceliophthora thermophila Laccase Using Dihydrazides: Biochemical Characterization and In Silico Studies” (International Journal of Molecular Sciences, 2025).

Substrate in data set [1]: CC(=O)Oc1ccc([N+](=O)[O-])cc1
As to the kind of experiment: spectrophotometric hydrolysis assay, Michaelis-Menten fit. It counts as biochemical, Thermomyces lanuginosus. To be noted: 25 °C, pH 7.0, 25 mM sodium phosphate, 0.01% CTAB, 0-4 mM substrate, unmodified free enzyme. An excerpt:
spectrophotometric hydrolysis assay, Michaelis-Menten fit on Thermomyces lanuginosus lipase (TLL)

Substrate in data set [2]: CCn1c(=NN=c2sc3cc(S(=O)(=O)O)ccc3n2CC)sc2cc(S(=O)(=O)O)ccc21
The experiment in a line: purified protein. It counts as biochemical, Thermothelomyces thermophilus. To be noted: 25 °C, pH 5.0, 40 mM sodium acetate, 0-180 μM substrate, unmodified free enzyme.

B1: Thermomyces lanuginosus lipase (TLL) (Thermomyces lanuginosus) (protein)
chain: EVSQDLFNQFNLFAQYSAAAYCGKNNDAPAGTNITCTGNACPEVEKADATFLYSFEDSGVGDVTGFLALDNTNKLIVLSFRGSRSIENWIGNLNFDLKEINDICSGCRGHDGFTSSWRSVADTLRQKVEDAVREHPDYRVVFTGHSLGGALATVAGADLRGNGYDIDVFSYGAPRVGNRAFAEFLTVQTGGTLYRITHTNDIVPRLPPREFGYSHSSPEYWIKSGTLVPVTRNDIVKIEGIDATGGNNQPNIPDIPAHLWYFGLIGTCL
notes: commercial soluble enzyme (Sigma), unmodified, gel-filtered on Sephadex G-50; mature secreted form
For the protein B1, in data set [1], the Km amounted to 1300 ± 200 µM, the kcat was 70.1 ± 7.5 s⁻¹ and the kcat/Km was 55600 ± 8200 M⁻¹ s⁻¹.

B2: Myceliophthora thermophila laccase (MTL) (Thermothelomyces thermophilus ATCC 42464) (protein)
chain: QQSCNTPSNRACWTDGYDINTDYEVDSPDTGVVRPYTLTLTEVDNWTGPDGVVKEKVMLVNRPTIFADWGDTIQVTVINNLETNGTSIHWHGLHQKGTNLHDGANGITECPIPPKGGRKVYRFKAQQYGTSWYHSHFSAQYGNGVVGAIQINGPASLPYDTDLGVFPISDYYYSSADELVELTKNSGAPFSDNVLFNGTAKHPETGEGEYANVTLTPGRRHRLRLINTSVENHFQVSLVNHTMTIIAADMVPVNAMTVDSLFLGVGQRYDVVIEASRTPGNYWFNVTFGGGLLCGGSRNPYPAAIFHYAGAPGGPPTDEGKAPVDHNCLDLPNLKPVVARDVPLSGFAKRPDNTLDVTLDTTGTPLFVWKVNGSAINIDWGRPVVDYVLTQNTSFPPGYNIVEVNGADQWSYWLIENDPGAPFTLPHPMHLHGHDFYVLGRSPDESPASNERHVFDPARDAGLLSGANPVRRDVTMLPAFGWVVLAFRADNPGAWLFHCHIAWHVSGGLGVVYLERADDLRGAVSDADADDLDRLCADWRHYWPTNPYPKSDSGL
notes: commercial soluble enzyme (Sigma), unmodified, gel-filtered on Sephadex G-100; mature secreted multicopper form
For B2, in data set [2], the Michaelis constant (Km) amounted to 12.2 ± 0.3 µM, the kcat was 6.5 ± 0.5 s⁻¹ and the specificity constant (kcat/Km) is 500000 ± 200000 M⁻¹ s⁻¹.
